Assay results published in PMC2955587, “Novel β-N-acetylglucosaminidases from Vibrio harveyi 650: Cloning, expression, enzymatic properties, and subsite identification” (BMC Biochemistry, 2010).

Columns and labels:
[1] = tested on: CC(=O)N[C@H]1[C@H](Oc2ccc([N+](=O)[O-])cc2)O[C@H](CO)[C@@H](O)[C@@H]1O; test: purified protein; conditions: 0.1 M phosphate pH 7.0, 37°C, 0-500 μM substrate, enzyme unstable
Text: initial rates, reducing sugar (DNS) assay, nonlinear regression on VhNag1

[2] = substrate: CC(=O)N[C@H]1[C@H](Oc2ccc([N+](=O)[O-])cc2)O[C@H](CO)[C@@H](O)[C@@H]1O; test: initial rates, reducing sugar (DNS) assay, nonlinear regression; format: biochemical, Vibrio harveyi; conditions: 0.1 M phosphate pH 7.0, 37°C, 0-500 μM substrate
Text: initial rates, reducing sugar (DNS) assay, nonlinear regression on VhNag2

## VhNag1 (Vibrio harveyi)
[1]
  Km: 172 ± 48 µM
  kcat: 0.08 s⁻¹
  kcat/Km: 465 M⁻¹ s⁻¹

B1: VhNag2 (Vibrio harveyi) (protein)
chain: EYRVDLVVLSEQKQNCRFGLTFHNLSDQDLNSWGLTFAFDRYILPDSVSNGQLTQIGSFCTLKPEGIVLAANHHYYCEFSIGSNPFRYYSDGFNEAMIDFVVDGQPQRAQVDVTPIVLASPYRERSDIPASLTHAQPLLPKPNHIEVSDHSFTFDEQAGVAIYTDLANSAKAWLLEELQRIHQFTLSSSNSGKIIFKSNPTLDEGAYKLKVSEESIKIEAGSSSGFTHACATLLQLLKRDEATKTMEAVCCSIIDSPRFRYRGMMLDCARHFHSVEQVKRLINLLAHYKLNTFHWHLTDDEGWRVEIKSLPQLTEIGAWRGIDETIEPQYTHLSQRYGGFYTQEEIRDVIAFAEQRGITIIPEIDVPGHCRAAIKSLPHLLIEAEDTTEYRSIQHYNDNVINPALPGSYEFIDKVLEEIAALFPAPYVHIGADEVPNGVWSKSPACQALMEQLGYTDYKELQGHFLRHAEDKLRKLGKRMLGWEEAQHGNKVSKDTVIYSWLSEEAALNCARQGFDVVLQPAQTTYLDMTQDYAPEEPGVDWANPLPLEKAYNYEPLAEVPADDPIRKRIWGIQTALWCEIINNPSRMDYMIFPRLTAMAEACWTEKQHRDWTDYLSRLKGHLPLLDLQGVNYRKPWK
notes: full-length, 1,926 bp, 73,143 Da, C-terminal His6 (pQE60), E. coli M15, Ni-NTA; no signal peptide predicted
[2]
  Km: 77 ± 17 µM
  kcat: 0.38 s⁻¹
  kcat/Km: 4940 M⁻¹ s⁻¹
